Measurements reported in patent publication US20110263485A1 (University of California, published 2011).

B1: C37(Q652L) (N-acetylated, C-term amidated) (peptide)
peptide: Ac-HTTWMEWDREINNYTSLIHSLIEESQNLQEKNEQELL-NH2
B2: C37-linker-CD4M33C1F23 (designed binder)
chain: HTTWMEWDREINNYTSLIHSLIEESQNQQEKNEQELLSSSGGGGSGGGGSSSSCNLHFCQLRCKSLGLLGKCAGSFCACV

Assays:
Assay in all cases: cell-based or functional assay
[1] = molecular target: HIV-1 ADA (R5) env (gp120 and gp41) (HIV-1 strain ADA)
[2] = molecular target: HIV-1 ADA (R5) env (gp120 and gp41) (HIV-1 strain ADA); remark: listed apart in the source
[3] = molecular target: HIV-1 JRFL (R5) env (gp120 and gp41) (HIV-1 strain JRFL)
[4] = molecular target: HIV-1 HXB2 env (X4) (gp120 and gp41) (HIV-1 strain HXB2, UniProt P04578 33-856; P04578 33-856)

| Binder | Inhibition of HIV single round pseudovirus in TZM-bl cells, ADA (R5), IC50 [1] [nM] | R5 fusion assay IC50 [2] [nM] | Inhibition of HIV single round pseudovirus in TZM-bl cells, ADA (R5), IC90 [1] [nM] | Inhibition of HIV single round pseudovirus in TZM-bl cells, JRFL (R5), IC50 [3] [nM] | Inhibition of HIV single round pseudovirus in TZM-bl cells, JRFL (R5), IC90 [3] [nM] | R5 fusion with competition IC50 [2] [nM] | R5 fusion with wash-out on ADA cells IC50 [2] [nM] | R5 fusion with wash-out on P5L cells IC50 [2] [nM] | X4 fusion assay IC50 [4] [nM] |
| --- | --- | --- | --- | --- | --- | --- | --- | --- | --- |
| B1 | 114 | 28.2 |  |  |  |  |  |  |  |
| B2 | 2.33 | 6.83 | 17.3 | 2.25 | 24.3 | 7.78 | 77.8 | 561 | 2.3 |
